Reference: PMC8523169, “Competitive binding of MatP and topoisomerase IV to the MukB hinge domain” (eLife, 2021)
Substitutions are numbered along the chain they refer to. Names may count otherwise.

B1: His-ParC R705E R729A (enzyme, E. coli, UniProt P0AFI2 1-752, looked up)
chain: MSDMAERLALHEFTENAYLNYSMYVIMDRALPFIGDGLKPVQRRIVYAMSELGLNASAKFKKSARTVGDVLGKYHPHGDSACYEAMVLMAQPFSYRYPLVDGQGNWGAPDDPKSFAAMRYTESRLSKYSELLLSELGQGTADWVPNFDGTLQEPKMLPARLPNILLNGTTGIAVGMATDIPPHNLREVAQAAIALIDQPKTTLDQLLDIVQGPDYPTEAEIITSRAEIRKIYENGRGSVRMRAVWKKEDGAVVISALPHQVSGARVLEQIAAQMRNKKLPMVDDLRDESDHENPTRLVIVPRSNRVDMDQVMNHLFATTDLEKSYRINLNMIGLDGRPAVKNLLEILSEWLVFRRDTVRRRLNYRLEKVLKRLHILEGLLVAFLNIDEVIEIIRNEDEPKPALMSRFGLTETQAEAILELKLRHLAKLEEMKIRGEQSELEKERDQLQGILASERKMNNLLKKELQADAQAYGDDRRSPLQEREEAKAMSEHDMLPSEPVTIVLSQMGWVRSAKGHDIDAPGLNYKAGDSFKAAVKGKSNQPVVFVDSTGRSYAIDPITLPSARGQGEPLTGKLTLPPGATVDHMLMESDDQKLLMASDAGYGFVCTFNDLVARNRAGKALITLPENAHVMPPVVIEDASDMLLAITQAGRMLMFPVSDLPQLSKGKGNKIINIPSAEAARGEDGLAQLYVLPPQSTLTIHVGKEKIKLRPEELQKVTGERGRRGTLMAGLQRIDRVEIDSPRRASSGDSEE
notes: ParC, E. coli, full length, with two substitutions; also called ParC^EA; source: site-directed mutagenesis, purified using the same protocol as ParC; not shown: His6, N-terminal, kept
B2: MatP^4E (K71E, Q72E, R75E, and R77E) (domain or fragment, E. coli, UniProt P0A8N0 1-132, looked up)
chain: MKYQQLENLESGWKWKYLVKKHREGELITRYIEASAAQEAVDVLLSLENEPVLVNGWIDKHMNPELVNRMEETIEAERKRHFNAEHQHTRKKSIDLEFIVWQRLAGLAQRRGKTLSETIVQLIEDAENKEKY
notes: MatP, E. coli, residues 1-132 (MatPΔ18C) with four substitutions; also called MatP K71E, Q72E, R75E, R77E; source: site-directed mutagenesis, purified using the same protocol as MatP
B3: MukB short hinge (SH; amino acid residues 667–779) (domain or fragment, E. coli, UniProt P22523 667-779, looked up)
chain: GGSEDQRLNALAERFGGVLLSEIYDDVSLEDAPYFSALYGPSRHAIVVPDLSQVTEHLEGLTDCPEDLYLIEGDPQSFDDSVFSVDELEKAVVVKIADRQWRYSRFPEVPLFG
notes: MukB, E. coli, residues 667-779: hinge lacking the entire coiled-coil; Monomer/dimer mix at tens of µM by nMS; also called SH-His; SH MukB; source: overexpressed, purified (TALON, HiTrap Q XL, SEC); not shown: His6, C-terminal, kept

Legend:
[1] = molecular target: the molecule itself; assay: native MS; proteins buffer exchanged into 200 mM ammonium acetate pH 8.0, alone or mixed in different ratios (two or three components, with or without 50 bp DNA), 10 min on ice
[2] = molecular target: T1, MatPΔ18C (1–132), C-terminal 6xHis-tag (E. coli, UniProt P0A8N0 1-132); assay: as above; details: both partners purified
T1 construct: MatP, E. coli, residues 1-132 (deletion of the 18 C-terminal residues); also called MatPΔ18C-His; MatP2; source: overexpressed, purified as previously published (Nolivos et al., 2016) with an added SEC step; not shown: His6, C-terminal, kept
T1 sequence (looked up): B2 chain with E71K, E72Q, E75R, E77R

| Binder | stoichiometry N [1] | binding result [2] |
| --- | --- | --- |
| B1 | 2 |  |
| B2 | 2 |  |
| B3 | 2 | binds |
